Laboratory results taken from patent EP0717753B1.

What was measured:
p185 HER2/neu [1] = molecular target: p185 HER2/neu (UniProt P04626); experiment: radioimmunoassay on fixed SKBR3 cells, 125I anti-mouse Ig secondary antibody
[2] = molecular target: Epidermal Growth Factor Receptor (UniProt P00533); experiment: radioimmunoassay on fixed A431 cells (non-target cell line for MGR6), 125I anti-mouse Ig secondary antibody
[3] = molecular target: Epidermal Growth Factor Receptor (UniProt P00533); experiment: radioimmunoassay on fixed A431 cells, 125I anti-mouse Ig secondary antibody
p185 HER2/neu [4] = molecular target: p185 HER2/neu (UniProt P04626); experiment: radioimmunoassay on fixed SKBR3 cells (non-target cell line for Mint5), 125I anti-mouse Ig secondary antibody
[5] = molecular target: Epidermal Growth Factor Receptor (UniProt P00533); experiment: cell-based or functional assay

Substance | % binding (p185 HER2/neu [1]) [%] | % binding [2] [%] | % binding [3] [%] | % binding (p185 HER2/neu [4]) [%] | INHIBITION OF CELL PROLIFERATION: IC50 CELL LINE A431, protocol A [5] | INHIBITION OF CELL PROLIFERATION: IC50 CELL LINE A431, protocol B [5] | INHIBITION OF PROTEIN … IN CELL SYSTEM: IC50 CELL LINE A431, protocol A [5] | INHIBITION OF PROTEIN … IN CELL SYSTEM: IC50 CELL LINE A431, protocol B [5]
immunoconjugate MGR6 - Ocymoidine (antibody) | 87.5 | 15.3 |  |  |  |  |  | 
immunoconjugate MGR6 - Piramidatine (antibody) | 105 |  |  |  |  |  |  | 
immunoconjugate Mint5 - Ocymoidine (antibody) |  |  | 78.5 | 9.38 | 1.9e-12 | 3.2e-11 | 1e-11 | 1e-11
immunoconjugate Mint5 - Piramidatine (antibody) |  |  | 110 | 18.8 | 1.3e-12 | 4.2e-11 | 1e-11 | 1e-11
